Molecular target: the molecule itself
Assay: gel filtration chromatography through Sephadex G-100 (self-association / homodimerization)
Protocol: Gel Filtration Chromatography: Gel filtration chromatography of recombinant human SULT2A1 was performed at 4° C. with a 2×25 cm column of Sephadex G-100 superfine. The mobile phase was 5 mM K phosphate buffer, pH 7.5, and 3 ml fractions were collected at a flow rate of approximately 1.8 mL per h. The fractions were assayed for SULT2A1 activity. Standards for column calibration were eluted separately and included Dextran Blue 2000, bovine serum albumin (67 kDa), ovalbumin (45 kDa), chymotrypsinogen A ([…]) and ribonuclease A (13.7 kDa).
The Ala261 Thr polymorphism is located within the dimerization motif at the C-terminus of the conserved 'Region IV' SULT signature sequence, and may alter the formation of the SULT2A1 homodimer. To test that hypothesis, recombinant WT and codon Thr261 variant allozyme preparations were subjected to gel filtration chromatography through Sephadex G-100.

B1: wild type SULT2A1 polypeptide (reference human SULT2A1) (enzyme)
chain: MSDDFLWFEGIAFPTMGFRSETLRKVRDEFVIRDEDVIILTYPKSGTNWLAEILCLMHSKGDAKWIQSVPIWERSPWVESEIGYTALSESESPRLFSSHLPIQLFPKSFFSSKAKVIYLMRNPRDVLVSGYFFWKNMKFIKKPKSWEEYFEWFCQGTVLYGSWFDHIHGWMPMREEKNFLLLSYEELKQDTGRTIEKICQFLGKTLEPEELNLILKNSSFQSMKENKMSNYSLLSVDYVVDKAQLLRKGVSGDWKNHFTVAQAEDFDKLFQEKMADLPRELFPWE
notes: Recombinant protein expressed in COS-1 cells from pCR3.1 and used as an unpurified high speed supernatant cytosol preparation; The pair written here is its self-association into the homodimer; also called WT; WT enzyme
binding result: binds

B2: SULT2A1 Ala261Thr allozyme (enzyme)
chain: MSDDFLWFEGIAFPTMGFRSETLRKVRDEFVIRDEDVIILTYPKSGTNWLAEILCLMHSKGDAKWIQSVPIWERSPWVESEIGYTALSESESPRLFSSHLPIQLFPKSFFSSKAKVIYLMRNPRDVLVSGYFFWKNMKFIKKPKSWEEYFEWFCQGTVLYGSWFDHIHGWMPMREEKNFLLLSYEELKQDTGRTIEKICQFLGKTLEPEELNLILKNSSFQSMKENKMSNYSLLSVDYVVDKAQLLRKGVSGDWKNHFTVTQAEDFDKLFQEKMADLPRELFPWE
notes: Recombinant variant made by site directed mutagenesis and expressed in COS-1 cells from pCR3.1; It was used as an unpurified cytosol preparation; also called codon Thr261 variant allozyme
binding result: no binding

Source: patent publication US7056731 (MAYO FOUNDATION FOR MEDICAL EDUCATION AND RESEARCH, dated 2006)
